Patent US20200317768A1 (published 2020)

Experiments:
[1] = target: T1, cynomolgus monkey FcγRIIa2 extracellular domain with C-terminal His-tag (cynomolgus monkey); assay: SPR (Biacore), antibody captured on chip, FcgR extracellular domain as analyte, 25 C
T1 construct: Expressed in FreeStyle 293 cells and purified; also called cyno FcγRIIa2; cynoFcgRIIa2; not shown: C-terminal His-tag
T1 chain: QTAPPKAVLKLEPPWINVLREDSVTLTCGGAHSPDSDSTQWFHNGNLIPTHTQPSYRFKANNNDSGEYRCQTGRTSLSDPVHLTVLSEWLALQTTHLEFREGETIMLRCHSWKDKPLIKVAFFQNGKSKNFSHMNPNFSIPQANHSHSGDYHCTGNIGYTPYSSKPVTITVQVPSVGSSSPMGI

[2] = target: T2, cynomolgus monkey FcγRIIa3 extracellular domain with C-terminal His-tag (cynomolgus monkey); assay: as above
T2 construct: Expressed in FreeStyle 293 cells and purified; also called cyno FcγRIIa3; cynoFcgRIIa3; not shown: C-terminal His-tag
T2 chain: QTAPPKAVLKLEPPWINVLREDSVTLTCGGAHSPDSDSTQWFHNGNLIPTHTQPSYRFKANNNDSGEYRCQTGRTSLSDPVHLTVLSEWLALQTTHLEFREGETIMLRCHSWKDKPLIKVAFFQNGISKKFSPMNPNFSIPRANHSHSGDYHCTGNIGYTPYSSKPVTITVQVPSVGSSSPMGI

[3] = target: T3, cynomolgus monkey FcγRIIb extracellular domain with C-terminal His-tag (cynomolgus monkey); assay: as above
T3 construct: Expressed in FreeStyle 293 cells and purified; also called cyno FcγRIIb; cynoFcγRIIb; not shown: C-terminal His-tag
T3 chain: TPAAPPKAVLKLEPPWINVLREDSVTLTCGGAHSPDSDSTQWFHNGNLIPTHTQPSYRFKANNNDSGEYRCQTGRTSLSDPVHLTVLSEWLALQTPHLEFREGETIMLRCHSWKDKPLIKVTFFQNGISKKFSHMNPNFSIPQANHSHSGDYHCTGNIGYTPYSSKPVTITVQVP

[4] = target: T4, human FcγRIIaH extracellular domain with C-terminal His-tag (human, UniProt P12318 34-217); assay: as above
T4 construct: Expressed in FreeStyle 293 cells and purified; also called human FcγRIIa (type H); FcgRIIaH; not shown: C-terminal His-tag
T4 sequence: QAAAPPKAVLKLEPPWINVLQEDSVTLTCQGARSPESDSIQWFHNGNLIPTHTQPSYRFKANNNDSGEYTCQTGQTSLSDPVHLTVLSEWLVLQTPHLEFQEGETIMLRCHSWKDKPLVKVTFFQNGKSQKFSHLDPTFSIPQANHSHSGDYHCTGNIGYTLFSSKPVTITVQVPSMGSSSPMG

[5] = target: T5, cynomolgus monkey FcγRIIIaS extracellular domain with C-terminal His-tag (cynomolgus monkey, UniProt Q8SPW2 21-206 at identity 1.00)); assay: as above
T5 construct: Expressed in FreeStyle 293 cells and purified; also called cyno FcγRIIIaS; cynoFcγRIIIaS; not shown: C-terminal His-tag
T5 chain: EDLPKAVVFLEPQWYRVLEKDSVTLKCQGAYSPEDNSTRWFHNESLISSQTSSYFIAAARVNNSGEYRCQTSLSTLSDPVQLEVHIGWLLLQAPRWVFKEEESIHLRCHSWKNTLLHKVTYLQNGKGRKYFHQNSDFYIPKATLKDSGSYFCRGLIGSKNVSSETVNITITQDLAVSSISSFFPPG

[6] = target: T6, human FcγRIIb extracellular domain with C-terminal His-tag (human, UniProt P31994 43-217); assay: as above
T6 construct: Expressed in FreeStyle 293 cells and purified; also called humanFcgRIIb; not shown: C-terminal His-tag
T6 sequence: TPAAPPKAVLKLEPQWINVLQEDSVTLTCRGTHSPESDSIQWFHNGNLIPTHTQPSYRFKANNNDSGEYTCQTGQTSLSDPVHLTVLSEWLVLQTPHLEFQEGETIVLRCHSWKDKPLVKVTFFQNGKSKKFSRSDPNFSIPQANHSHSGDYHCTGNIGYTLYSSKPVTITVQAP

[7] = target: T7, human FcγRIIIaV extracellular domain with C-terminal His-tag (human, UniProt P08637 17-208); assay: as above
T7 construct: Expressed in FreeStyle 293 cells and purified; also called FcgRIIIaV; not shown: C-terminal His-tag

[8] = target: T8, cynomolgus monkey FcγRIIa1 extracellular domain with C-terminal His-tag (cynomolgus monkey); assay: as above
T8 construct: Expressed in FreeStyle 293 cells and purified; also called cyno FcγRIIa1; cynoFcgRIIa1; not shown: C-terminal His-tag
T8 chain: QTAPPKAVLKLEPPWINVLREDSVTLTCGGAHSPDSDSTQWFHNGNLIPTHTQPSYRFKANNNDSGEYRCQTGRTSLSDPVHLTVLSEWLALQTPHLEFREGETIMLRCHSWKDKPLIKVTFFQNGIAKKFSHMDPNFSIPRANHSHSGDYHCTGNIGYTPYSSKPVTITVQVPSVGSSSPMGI

[9] = target: T2, cynomolgus monkey FcγRIIa3 …; assay: SPR (Biacore); KD of SG1 divided by KD of the variant for this FcgR;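 also: relative to parent M103205H795-SG1 carrying the SG1 human heavy chain constant region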

T7 sequence (P08637 17-208 F176V): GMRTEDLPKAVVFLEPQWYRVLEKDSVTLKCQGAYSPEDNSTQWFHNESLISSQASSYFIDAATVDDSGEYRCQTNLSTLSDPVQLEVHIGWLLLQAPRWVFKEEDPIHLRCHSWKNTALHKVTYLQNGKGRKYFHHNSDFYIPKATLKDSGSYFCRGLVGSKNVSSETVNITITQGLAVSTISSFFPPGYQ

B1: M103205H795-MY176 / M103202L889-SK1 (antibody, human IgG1, kappa)
heavy: QVTLKESGPVLVKPTETLTLTCTVSGIDLSHDDISWVRQAPGKGLEWVGIISYAGSTYYASWAKGRLTISKDTSKNQVVLTMTNMDPVDTATYYCARGVPAYSHGGDLWGQGTLVTVSSASTKGPSVFPLAPSSKSTSGGTAALGCLVKDYFPEPVTVSWNSGALTSGVHTFPAVLQSSGLYSLSSVVTVPSSSLGTQTYICNVNHKPSNTKVDKKVEPKSCDKTHTCPPCPAPELLNGPSVFLFPPKPKDTLMISRTPEVTCVVVDVSEEDPEVKFNWYVDGVEVHNAKTKPREEQYNSTYRVVSVLTVLHQDWLNGKEYKCKVSNKALPAPIEKTISKAKGQPREPQVYTLPPSREEMTKNQVSLTCLVKGFYPSDIAVEWESNGQPENNYKTTPLVLDSDGSFFLYSKLTVDKSRWQQGNVFSCSVMHEALHNHYTQKSLSLSP
light: DIVMTQSPATLSLSPGERATLSCTSSQSVYHANWLSWFQQKPGQPPKLLIYWASTLAYGVPSRFSGSGSGTDFTLTISSLQPEDAATYYCAGGYGGGRYAFGQGTKVEIKRTVAAPSVFIFPPSDEQLKSGTASVVCLLNNFYPREAKVQWKVDNALQSGNSQESVTEQDSKDSTYSLSSTLTLSKADYEKHKVYACEVTHQGLSSPVTKSFNRGEC
notes: Position 396 variant derived from MY052, expressed with M103202L889-SK1 as light chain
What does the source list for B1?
Kd [1]: 1400 nM; Kd [2]: 5000 nM; Kd [3]: 620 nM; Kd [4]: 700 nM; Kd [5]: 2700 nM; Kd [6]: 7000 nM; Kd [7]: 6700 nM; Kd [8]: 1300 nM; KD fold (SG1 = 1) [9]: 2.8 fold

B2: M103205H795-MY177 / M103202L889-SK1 (antibody, human IgG1, kappa)
heavy: QVTLKESGPVLVKPTETLTLTCTVSGIDLSHDDISWVRQAPGKGLEWVGIISYAGSTYYASWAKGRLTISKDTSKNQVVLTMTNMDPVDTATYYCARGVPAYSHGGDLWGQGTLVTVSSASTKGPSVFPLAPSSKSTSGGTAALGCLVKDYFPEPVTVSWNSGALTSGVHTFPAVLQSSGLYSLSSVVTVPSSSLGTQTYICNVNHKPSNTKVDKKVEPKSCDKTHTCPPCPAPELLNGPSVFLFPPKPKDTLMISRTPEVTCVVVDVSEEDPEVKFNWYVDGVEVHNAKTKPREEQYNSTYRVVSVLTVLHQDWLNGKEYKCKVSNKALPAPIEKTISKAKGQPREPQVYTLPPSREEMTKNQVSLTCLVKGFYPSDIAVEWESNGQPENNYKTTPNVLDSDGSFFLYSKLTVDKSRWQQGNVFSCSVMHEALHNHYTQKSLSLSP
light: DIVMTQSPATLSLSPGERATLSCTSSQSVYHANWLSWFQQKPGQPPKLLIYWASTLAYGVPSRFSGSGSGTDFTLTISSLQPEDAATYYCAGGYGGGRYAFGQGTKVEIKRTVAAPSVFIFPPSDEQLKSGTASVVCLLNNFYPREAKVQWKVDNALQSGNSQESVTEQDSKDSTYSLSSTLTLSKADYEKHKVYACEVTHQGLSSPVTKSFNRGEC
notes: as for B1
With B2 as the binder, how does the Kd [1] read?
Its Kd is 1800 nM.

What about the Kd [2] of the same binder?
Its Kd is 8100 nM.

And the Kd [3]?
The Kd was 830 nM.

What about the Kd [4] of the same binder?
Its Kd is 10000 nM.

What about the Kd [5] of the same binder?
Its Kd is 2900 nM.

What about the Kd [6] of the same binder?
The Kd was 11000 nM.

And the Kd [7]?
Its Kd is 6200 nM.

And the Kd [8]?
The Kd was 1900 nM.

What about the “KD fold (SG1 = 1)” value [9] of the same binder?
The value was 2.1 fold.

B3: M103205H795-MY178 / M103202L889-SK1 (antibody, human IgG1, kappa)
heavy: QVTLKESGPVLVKPTETLTLTCTVSGIDLSHDDISWVRQAPGKGLEWVGIISYAGSTYYASWAKGRLTISKDTSKNQVVLTMTNMDPVDTATYYCARGVPAYSHGGDLWGQGTLVTVSSASTKGPSVFPLAPSSKSTSGGTAALGCLVKDYFPEPVTVSWNSGALTSGVHTFPAVLQSSGLYSLSSVVTVPSSSLGTQTYICNVNHKPSNTKVDKKVEPKSCDKTHTCPPCPAPELLNGPSVFLFPPKPKDTLMISRTPEVTCVVVDVSEEDPEVKFNWYVDGVEVHNAKTKPREEQYNSTYRVVSVLTVLHQDWLNGKEYKCKVSNKALPAPIEKTISKAKGQPREPQVYTLPPSREEMTKNQVSLTCLVKGFYPSDIAVEWESNGQPENNYKTTPQVLDSDGSFFLYSKLTVDKSRWQQGNVFSCSVMHEALHNHYTQKSLSLSP
light: DIVMTQSPATLSLSPGERATLSCTSSQSVYHANWLSWFQQKPGQPPKLLIYWASTLAYGVPSRFSGSGSGTDFTLTISSLQPEDAATYYCAGGYGGGRYAFGQGTKVEIKRTVAAPSVFIFPPSDEQLKSGTASVVCLLNNFYPREAKVQWKVDNALQSGNSQESVTEQDSKDSTYSLSSTLTLSKADYEKHKVYACEVTHQGLSSPVTKSFNRGEC
notes: as for B1
With B3 as the binder, how does the Kd [1] read?
Its Kd is 2100 nM.

What about the Kd [2] of the same binder?
The Kd was 8700 nM.

And the Kd [3]?
Its Kd is 950 nM.

And the Kd [4]?
The Kd was 1200 nM.

And the Kd [5]?
Its Kd is 3000 nM.

And the Kd [6]?
The Kd was 13000 nM.

And the Kd [7]?
The Kd was 4500 nM.

What about the Kd [8] of the same binder?
Its Kd is 2000 nM.

And the “KD fold (SG1 = 1)” value [9]?
The value was 2 fold.

B4: M103205H795-MY179 / M103202L889-SK1 (antibody, human IgG1, kappa)
heavy: QVTLKESGPVLVKPTETLTLTCTVSGIDLSHDDISWVRQAPGKGLEWVGIISYAGSTYYASWAKGRLTISKDTSKNQVVLTMTNMDPVDTATYYCARGVPAYSHGGDLWGQGTLVTVSSASTKGPSVFPLAPSSKSTSGGTAALGCLVKDYFPEPVTVSWNSGALTSGVHTFPAVLQSSGLYSLSSVVTVPSSSLGTQTYICNVNHKPSNTKVDKKVEPKSCDKTHTCPPCPAPELLNGPSVFLFPPKPKDTLMISRTPEVTCVVVDVSEEDPEVKFNWYVDGVEVHNAKTKPREEQYNSTYRVVSVLTVLHQDWLNGKEYKCKVSNKALPAPIEKTISKAKGQPREPQVYTLPPSREEMTKNQVSLTCLVKGFYPSDIAVEWESNGQPENNYKTTPRVLDSDGSFFLYSKLTVDKSRWQQGNVFSCSVMHEALHNHYTQKSLSLSP
light: DIVMTQSPATLSLSPGERATLSCTSSQSVYHANWLSWFQQKPGQPPKLLIYWASTLAYGVPSRFSGSGSGTDFTLTISSLQPEDAATYYCAGGYGGGRYAFGQGTKVEIKRTVAAPSVFIFPPSDEQLKSGTASVVCLLNNFYPREAKVQWKVDNALQSGNSQESVTEQDSKDSTYSLSSTLTLSKADYEKHKVYACEVTHQGLSSPVTKSFNRGEC
notes: as for B1
With B4 as the binder, how does the Kd [1] read?
The Kd was 2000 nM.

And the Kd [2]?
Its Kd is 7900 nM.

And the Kd [3]?
The Kd was 980 nM.

And the Kd [4]?
Its Kd is 11000 nM.

What about the Kd [5] of the same binder?
The Kd was 2700 nM.

And the Kd [6]?
Its Kd is 12000 nM.

What about the Kd [7] of the same binder?
The Kd was 5900 nM.

And the Kd [8]?
The Kd was 1900 nM.

What about the “KD fold (SG1 = 1)” value [9] of the same binder?
Its value is 2.2 fold.
